Test results: patent US20210261677A1 (ORICELL THERAPEUTICS, published 2021)
Where two headings read alike, the source gives them in different places.

T1: recombinant dog PD-L1-Fc (70110-DO2H, Sino Biological Inc.) (dog, UniProt E2RKZ5 19-236, Biotinylated on lysines/amines (EZ-Link Sulfo-NHS-LC-Biotin); positions not defined)
T1 construct: Bought; also called Dog PD-L1-Fc-Biotin; canine PD-L1; not shown: Fc part and any linker of the bought fusion (Sino Biological 70110-DO2H)
T1 sequence: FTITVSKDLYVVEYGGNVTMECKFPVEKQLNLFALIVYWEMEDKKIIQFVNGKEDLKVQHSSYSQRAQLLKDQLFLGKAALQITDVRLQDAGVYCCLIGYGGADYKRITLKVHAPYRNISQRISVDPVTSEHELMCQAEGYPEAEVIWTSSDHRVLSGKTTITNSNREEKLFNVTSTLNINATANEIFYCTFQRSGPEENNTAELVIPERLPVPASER


Legend:
[1] = molecular target: T2, human PD-L1 on cells (CHO cells that stably expressed human PD-L1; MDA-MB-231 cells) (human, UniProt Q9NZQ7 19-290); experiment: flow cytometry competition: biotin-labelled human PD-1-Fc at a subsaturated concentration on CHO cells stably expressing human PD-L1, antibody titrated, streptavidin R-PE detection
T2 construct: whole, on cells; Stably expressed on CHO cells; also called CHO cells expressing human PD-L1
Method: (§1) After cell washing, Streptavidin R-PE Conjugate (life technology, SA10041) was added and incubated (4° C., 30 min). After cell washing, the fluorescence intensity was detected by a flow cytometer (Intellicyt iQue Screener).

[2] = molecular target: T3, mouse PD-L1 on CHO cells that stably expressed mouse PD-L1 (mouse, UniProt Q9EP73 19-290); experiment: flow cytometry competition: biotin-labelled mouse PD-1-Fc at a subsaturated concentration on CHO cells stably expressing mouse PD-L1, antibody titrated, streptavidin R-PE detection
T3 construct: whole, on cells; also called CHO cells expressing mouse PD-L1
Method: After cell washing, Streptavidin R-PE Conjugate (life technology, SA10041) was added and incubated (4° C., 30 min). After cell washing, the fluorescence intensity was detected by flow cytometer (Intellicyt iQue Screener).

[3] = molecular target: T4, recombinant human PD-L1-Fc protein (Origincell Therapeutics Co., Ltd.) (human, UniProt Q9NZQ7 19-238, limits assumed); experiment: BLI (Octet RED384), biotinylated antigen on SA sensor, antibody in solution
T4 construct: Labeled with biotin (EZ-Link Sulfo-NHS-LC-Biotin) for the BLI assays; unlabeled in the phage ELISA; also called Human PD-L1-Fc-Biotin; not shown: Fc part
Method: (§2) The antigen-antibody binding kinetics were analyzed by a biofilm interference (BLI) technology, using a molecular interaction analyzer (Octet RED384, purchased from Pall ForteBio Analytics Co., Ltd.) and using a PBS buffer containing 0.1% BSA and 0.02% Tween 20. A biotin-coupled antigen protein with a concentration of 50 nM was fixed with the SA sensor (Pall ForteBio Analytics Co., Ltd.), and bound at 1500 rpm for 10 minutes; then it was bound with the double-diluted antibody solution at 1500 rpm for 10 minutes; and finally dissociated at 1500 rpm for 10 minutes. The obtained results would be analyzed by Octet Data Analysis 9.0 software (Pall ForteBio Analytics Co., Ltd.) to give the KD, Kₒₙ (1/Ms) and Koff (1/s).

[4] = molecular target: T5, recombinant Macaca fascicularis PD-L1-Fc (90251-CO2H, Sino Biological Inc.) (Macaca fascicularis, UniProt G7PSE7 19-239); experiment: as above
T5 construct: Bought; also called Macaca Fascicularis PD-L1-Fc-Biotin; not shown: Fc part
Method: as §2

[5] = molecular target: T6, recombinant mouse PD-L1-Fc protein (M5251, ACROBiosystems Inc.) (mouse, UniProt Q9EP73 19-238); experiment: as above
T6 construct: Bought; Labeled with biotin for the BLI assays; unlabeled in the phage ELISA; also called Mouse PD-L1-Fc-Biotin; not shown: Fc part
Method: as §2

[6] = molecular target: T1, recombinant dog PD-L1-Fc (70110-DO2H, …); experiment: as above
Method: as §2

[7] = molecular target: T3, mouse PD-L1 on CHO cells that stably …; experiment: flow cytometry competition: biotin-labelled mouse PD-1-Fc at a subsaturated concentration on CHO cells stably expressing mouse PD-L1, antibody titrated, streptavidin R-PE detection; remark: listed apart in the source
Method: as §1

[8] = molecular target: T2, human PD-L1 on cells (CHO cells that …); experiment: flow cytometry on CHO cells stably expressing human PD-L1, anti-human IgG-Fc DyLight 650 detection
Method: After cell washing, Goat F(ab′)₂ Anti-Human IgG-Fc (DyLight 650) (ab98593, abcam) was added and incubated at 4° C. for 30 min. After cell washing, the fluorescence intensity was detected by a flow cytometer (Intellicyt iQue Screener).

[9] = molecular target: T2, human PD-L1 on cells (CHO cells that …); experiment: as above; remark: listed apart in the source
Method: The mixture was mixed well and incubated at 4° C. for 1 hr. After cell washing, Goat F(ab)₂ Anti-Human IgG-Fc (DyLight 650) (ab98593, Abcam) was added and incubated at 4° C. for 30 min. After cell washing, the fluorescence intensity was detected by a flow cytometer (Intellicyt iQue Screener).

[10] = molecular target: T2, human PD-L1 on cells (CHO cells that …); experiment: flow cytometry competition: biotin-labelled human PD-1-Fc at a subsaturated concentration on CHO cells stably expressing human PD-L1, antibody titrated, streptavidin R-PE detection; remark: listed apart in the source
Method: as §1

[11] = molecular target: T7, recombinant human PD-L1-His protein (Origincell Therapeutics Co., Ltd.) (human, UniProt Q9NZQ7 19-238, limits assumed); experiment: BLI (Octet RED384), antibody on AHC sensor, PD-L1-His in solution
T7 construct: not shown: His tag

[12] = molecular target: T2, human PD-L1 on cells (CHO cells that …); experiment: flow cytometry on MDA-MB-231 cells (human PD-L1), anti-human IgG-Fc DyLight 650 detection
Method: Human breast cell strain MDA-MB-231 (Shanghai Chinese Academy of Sciences Cell Library) highly expresses the human PD-L1 molecule. […] After cell washing, Goat F(ab′)₂ Anti-Human IgG-Fc (DyLight 650) (ab98593, abcam) was added and incubated at 4° C. for 30 min. After cell washing, the fluorescence intensity was detected by a flow cytometer (Intellicyt iQue Screener).

[13] = molecular target: T3, mouse PD-L1 on CHO cells that stably …; experiment: flow cytometry on CHO cells stably expressing mouse PD-L1, anti-human IgG-Fc DyLight 650 detection
Method: The mixture was mixed well and incubated at 4° C. for 1 hr. After cell washing, Goat F(ab′)₂ Anti-Human IgG-Fc (DyLight 650) (ab98593) was added and incubated at 4° C. for 30 min. After cell washing, the fluorescence intensity was detected by a flow cytometer (Intellicyt iQue Screener).

[14] = molecular target: T3, mouse PD-L1 on CHO cells that stably …; experiment: flow cytometry competition: biotin-labelled mouse PD-1-Fc at a subsaturated concentration on CHO cells stably expressing mouse PD-L1, antibody titrated, streptavidin R-PE detection; remark: listed apart in the source
Method: as §1

T6 sequence (Q9EP73 19-238 limits assumed): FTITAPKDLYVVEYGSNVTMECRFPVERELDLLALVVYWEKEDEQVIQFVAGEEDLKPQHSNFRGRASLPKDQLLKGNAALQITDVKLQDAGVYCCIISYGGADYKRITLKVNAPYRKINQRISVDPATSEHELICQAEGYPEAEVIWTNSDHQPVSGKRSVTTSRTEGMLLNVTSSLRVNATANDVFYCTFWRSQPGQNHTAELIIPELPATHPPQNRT
T3 sequence (Q9EP73 19-290): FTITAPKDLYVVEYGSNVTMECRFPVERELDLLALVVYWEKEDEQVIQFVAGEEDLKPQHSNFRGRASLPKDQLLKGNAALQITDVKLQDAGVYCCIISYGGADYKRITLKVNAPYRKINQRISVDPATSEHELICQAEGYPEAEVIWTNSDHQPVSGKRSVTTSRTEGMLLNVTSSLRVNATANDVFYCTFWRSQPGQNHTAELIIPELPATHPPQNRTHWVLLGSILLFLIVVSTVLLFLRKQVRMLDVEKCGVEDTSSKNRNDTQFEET
T5 sequence (G7PSE7 entry or part of it): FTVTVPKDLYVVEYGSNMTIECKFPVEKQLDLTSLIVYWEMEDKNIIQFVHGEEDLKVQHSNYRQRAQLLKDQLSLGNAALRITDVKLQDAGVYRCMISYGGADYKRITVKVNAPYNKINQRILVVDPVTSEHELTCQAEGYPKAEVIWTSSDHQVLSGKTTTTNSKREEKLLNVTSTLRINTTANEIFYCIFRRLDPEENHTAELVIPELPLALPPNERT
T7 sequence (Q9NZQ7 19-238 limits assumed): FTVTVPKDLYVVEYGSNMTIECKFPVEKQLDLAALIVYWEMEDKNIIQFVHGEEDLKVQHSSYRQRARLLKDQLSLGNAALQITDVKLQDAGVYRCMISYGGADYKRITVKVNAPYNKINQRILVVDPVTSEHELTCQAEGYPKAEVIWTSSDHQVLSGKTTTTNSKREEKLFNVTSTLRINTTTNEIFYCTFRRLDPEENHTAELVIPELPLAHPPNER
T4 sequence (Q9NZQ7 19-238 limits assumed): as above
T2 sequence (Q9NZQ7 19-290): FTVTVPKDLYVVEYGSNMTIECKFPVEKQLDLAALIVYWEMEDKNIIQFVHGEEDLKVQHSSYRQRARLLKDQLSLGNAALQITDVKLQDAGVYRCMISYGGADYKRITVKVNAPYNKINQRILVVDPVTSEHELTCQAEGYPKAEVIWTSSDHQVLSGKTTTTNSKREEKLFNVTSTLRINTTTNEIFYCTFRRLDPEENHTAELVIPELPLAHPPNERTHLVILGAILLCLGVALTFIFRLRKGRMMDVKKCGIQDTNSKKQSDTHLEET

Row | Binder | IC50 (read off the curve) [1] | IC50 (read off the curve) [2] [µg/mL] | Kd [3] [nM] | koff [3] [s⁻¹] | kon [3] [M⁻¹ s⁻¹] | Kd [4] [nM] | koff [4] [s⁻¹] | kon [4] [M⁻¹ s⁻¹] | Kd [5] [nM] | koff [5] [s⁻¹] | kon [5] [M⁻¹ s⁻¹] | Kd [6] [nM] | koff [6] [s⁻¹] | kon [6] [M⁻¹ s⁻¹] | IC50 (read off the curve) [7] [nM] | EC50 (read off the curve) [8] [nM] | EC50 (read off the curve) [9] [nM] | IC50 (read off the curve) [10] [nM] | Kd [11] [nM] | koff [11] [s⁻¹] | other results
1 | anti-PD-L1 fully human antibody YN-002 (antibody, human IgG1, lambda, V domains shown, Intact IgG1,lambda antibody of phage antibody 1B10, expressed in 293F cells) VH: QVQLVQSGAEVRKPGSSVKVSCKASGGTFSSYAISWVRQAPGQGLEWMGRIIPILGIANYAQKFQGRVTITADKSTSTAYMELSSLRSEDTAVYYCARTMDGYSYGNFDYWGQGTLVTVSS VL: QSALTQPASVSGSPGQSITISCTGTSSDVGGYNYVSWYQQHPGKAPKLLIYGNSNRPSGVPDRFSGSKSGTSASLAITGLQAEDEADYYCQSYDSSLSGSVFGGGTKLTVLG | ~1 µg/mL | ~0.1 | 0.888 | 0.000594 | 669000 | 1.07 | 0.0019 | 1.77e+06 | 1.72 | 0.00168 | 977000 | 0.743 | 0.000759 | 1.02e+06 | – | – | – | – | – | – | –
2 | PD-L1 antibody YN-036 (antibody, human IgG1, lambda, V domains shown, full-length IgG1,lambda) VH: QVQLVQSGAEVKKPGSSVKVSCKASRGPFSTYAISWVRQAPGQGLEWMGRIIPILGIANYAQKFQGRVTITADKSTSTAYMELSSLRSEDTAVYYCARTMGEYSYGNYDYWGQGTLVTVSS VL: QSALTQPASVSGSPGQSITISCTGTVSEVGGYNEVSWYQQHPGKAPKLMIYGNSNRPSGVSNRFSGSKSGNTASLTISGLQAEDEADYYCQSYDSSLSGTVFGGGTKLTVLG | ~3 nM | – | – | – | – | – | – | – | – | – | – | – | – | – | ~2 | ~4 | 3 to 4 | ~2 | 0.474 | 0.000175 | kon [11]: 369000 M⁻¹ s⁻¹; EC50 (read off the curve) [12]: ~1 nM; EC50 (read off the curve) [13]: ~4 nM; IC50 (read off the curve) [14]: ~5 nM
3 | anti-PD-L1 fully human antibody YN-003 (antibody, human IgG1, lambda, V domains shown, Germline version of YN-002; IgG1,lambda) VH: QVQLVQSGAEVKKPGSSVKVSCKASGGTFSSYAISWVRQAPGQGLEWMGRIIPILGIANYAQKFQGRVTITADKSTSTAYMELSSLRSEDTAVYYCARTMDGYSYGNFDYWGQGTLVTVSS VL: QSALTQPASVSGSPGQSITISCTGTSSDVGGYNYVSWYQQHPGKAPKLMIYGNSNRPSGVSNRFSGSKSGNTASLTISGLQAEDEADYYCQSYDSSLSGSVFGGGTKLTVLG | ~0.2 µg/mL | ~0.06 | 0.408 | 0.000611 | 1.5e+06 | 0.654 | 0.00136 | 2.08e+06 | 0.996 | 0.000997 | 1.03e+06 | 0.594 | 0.000514 | 864000 | – | – | – | – | – | – | –
4 | PD-L1 antibody YN-035 (antibody, human IgG1, lambda, V domains shown, full-length IgG1,lambda) VH: QVQLVQSGAEVKKPGSSVKVSCKASRGPFSTYAISWVRQAPGQGLEWMGRIIPILGIANYAQKFQGRVTITADKSTSTAYMELSSLRSEDTAVYYCARTMEGYGFGNFDYWGQGTLVTVSS VL: QSALTQPASVSGSPGQSITISCTGTVSEVGGYNEVSWYQQHPGKAPKLMIYGNSNRPSGVSNRFSGSKSGNTASLTISGLQAEDEADYYCQSYDSSLSGTVFGGGTKLTVLG | ~3 nM | – | – | – | – | – | – | – | – | – | – | – | – | – | ~3 | ~4 | 3 to 4 | ~2 | 0.452 | 0.000193 | kon [11]: 427000 M⁻¹ s⁻¹; EC50 (read off the curve) [12]: ~0.9 nM; EC50 (read off the curve) [13]: ~6 nM; IC50 (read off the curve) [14]: ~5 nM
